The target in this test is T1, CARD-4L epitope tagged with HA (pCI-CARD-4LcHA) (human, UniProt Q9Y239 1-953).
T1 construct: Expressed in 293T cells from pCI; in cell lysate
T1 sequence: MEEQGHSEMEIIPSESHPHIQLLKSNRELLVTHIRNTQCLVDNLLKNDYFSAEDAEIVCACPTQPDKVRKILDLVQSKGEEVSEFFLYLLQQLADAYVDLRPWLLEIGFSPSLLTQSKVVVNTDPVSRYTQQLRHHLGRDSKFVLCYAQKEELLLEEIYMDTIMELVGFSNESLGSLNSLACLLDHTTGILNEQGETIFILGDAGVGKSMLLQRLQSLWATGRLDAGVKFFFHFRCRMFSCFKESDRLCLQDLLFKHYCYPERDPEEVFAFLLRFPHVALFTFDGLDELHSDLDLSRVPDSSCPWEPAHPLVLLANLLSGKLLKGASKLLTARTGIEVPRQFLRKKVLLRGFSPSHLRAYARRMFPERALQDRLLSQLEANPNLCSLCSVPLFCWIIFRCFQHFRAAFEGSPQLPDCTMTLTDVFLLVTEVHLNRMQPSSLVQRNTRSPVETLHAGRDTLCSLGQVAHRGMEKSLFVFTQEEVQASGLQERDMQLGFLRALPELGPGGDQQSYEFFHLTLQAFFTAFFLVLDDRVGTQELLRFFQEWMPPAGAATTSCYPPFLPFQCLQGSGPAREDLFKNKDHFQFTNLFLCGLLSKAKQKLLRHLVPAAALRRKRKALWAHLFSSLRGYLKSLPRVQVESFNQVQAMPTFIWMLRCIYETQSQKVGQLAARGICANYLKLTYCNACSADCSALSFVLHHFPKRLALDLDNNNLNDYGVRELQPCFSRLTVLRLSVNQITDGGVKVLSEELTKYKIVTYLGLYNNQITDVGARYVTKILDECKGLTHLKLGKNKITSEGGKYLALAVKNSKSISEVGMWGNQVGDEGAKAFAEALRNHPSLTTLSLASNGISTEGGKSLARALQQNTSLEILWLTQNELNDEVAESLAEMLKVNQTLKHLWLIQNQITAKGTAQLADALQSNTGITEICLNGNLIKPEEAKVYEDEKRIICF
Put plainly: coimmunoprecipitation from cotransfected 293T cells (anti-MYC IP, anti-HA Western blot). (In general: Immunoblotting shows a protein as a band on a membrane.)

Experimental: Cells from each transfected line were lysed and an immunoprecipitation procedure was carried out on each lysate with an anti-MYC epitope tag antibody to precipitate the CARD-4LcHA expressed by each cell line and any physically associated proteins.

B1: CARD-3 lacking the CARD domain (SEQ ID NO:6) epitope tagged with MYC (pCI-CARD3noCARDnMYC) (other, not shown: small tags and cut ends)
chain: MNGEAICSALPTIPYHKLADLRYLSRGASGTVSSARHADWRVQVAVKHLHIHTPLLDSERKDVLREAEILHKARFSYILPILGICNEPEFLGIVTEYMPNGSLNELLHRKTEYPDVAWPLRFRILHEIALGVNYLHNMTPPLLHHDLKTQNILLDNEFHVKIADFGLSKWRMMSLSQSRSSKSAPEGGTIIYMPPENYEPGQKSRASIKHDIYSYAVITWEVLSRKQPFEDVTNPLQIMYSVSQGHRPVINEESLPYDIPHRARMISLIESGWAQNPDERPSFLKCLIELEPVLRTFEEITFLEAVIQLKKTKLQSVSSAIHLCDKKKMELSLNIPVNHGPQEESCGSSQLHENSGSPETSRSLPAPQDNDFLSRKAQDCYFMKLHHCPGNHSWDSTISGSQRAAFCDHKTIPCSSAIINPLSTAGNSERL
notes: also called CARD-3 lacking its CARD domain
Consider B1, for which the binding result was “no binding”.

The values are drawn from US6482933 (Takeda / Millennium, dated 2002).
